The target of assay [1] is T1, human CDH17-mGFP fusion protein overexpressed on HEK293T cells (clone G11) (human, UniProt Q12864 23-832).
T1 construct: also called HEK293T CDH17mGFP Clone G11; HEK293T Human CDH17mGFP G11; not shown: mGFP fluorescent protein fused to CDH17
In words: KinExA, cell-based, HEK293T CDH17mGFP clone G11. Here is the method: The cell-based antibody affinity (KD) of the anti-CDH17 antibodies was measured by KinExA 4000 (Sapidyne Instrument, Boise, Idaho). Briefly, HEK293T overexpressing CDH17-fluorescent protein fusion (i.e., human CDH17-mGFP, monkey CDH17-mGFP, mouse CDH17-mGFP or rat CDH17-mGFP) were detached with Versene and equilibrated with either 50 pM, 200 pM, 20 nM, or 50 nM antibody in 2% FBS/DMEM at 4° C. overnight. The cell concentration started at 5×10⁶ cells/mL or 1×10⁷ cells/mL and 2-fold serial dilutions were performed up to 10 points. The next day, the cells were centrifuged at 1500 rpm for 10 min and the supernatants were saved. […] In contrast, while the humanized anti-CDH17 antibody, 07-0653-h43, fails to bind mouse CDH17 protein, it binds rat CDH17 protein equally well as to human and monkey CDH17 protein such that its Kp is less than about 1 nM for human, monkey and rat CDH17 proteins with overlapping 95% confidence interval values.
A general note: Kinetic exclusion samples the free partner from a solution-phase mixture.

Assay [2] has as its target T1, human CDH17-mGFP fusion protein …. In words: flow cytometry (iQue) on HEK293T CDH17 mGFP clone G11 (human), 1 µg Ab.

B1: humanized anti-CDH17 antibody 07-0663-h7 (antibody, human IgG1, kappa, V domains shown)
VH: QVQLVQSGAEVKKPGSSVKISCKVSGYTFTDHTIHWMRQAPGQGLEWIGYIFPRDDIVVYAQKFQGRATLTADKSTSTAYMELSSLRSEDTAVYYCARPPYYYSRNFYFDYWGQGTTLTVSS
VL: DIQMTQSPSSLSASVGDRVTITCRVSSIISSSKLHWYQQKPGKAPKPLIYGTSTLASGVPSRFSGSGSGTDYTLTISSLQPEDFATYYCQQWSNYPFTFGQGTKLEIKR
notes: Human IgG1 / kappa
For the molecule B1, in assay [1], the Kd was found to be 0.152 nM. Further, the “Antibody Binding Activity by Flow iQue” value in assay [2] amounted to 172000.

Usually Kd stands for the constant that tells how readily two partners part at equilibrium. Read a high Kd as weaker binding.

The record behind these values is US20250051437A1 (University of California, published 2025).
